Source: US20110150759A1

What was measured:
[1] = target: soluble EGFR fragment 1-501 (human) (UniProt P00533); experiment: SPR (BIAcore), EGFR fragment 1-501 (unable to form tether)
[2] = target: EGFR 1-621 full length extracellular domain (human) (UniProt P00533); experiment: SPR (BIAcore), EGFR fragment 1-621 (can form tether)
wtEGFR-FLAG (human) = wtEGFR-FLAG (human) (UniProt P00533); experiment: flow cytometry on Ba/F3 cells, median fluorescence; reference M2 anti-FLAG antibody
C271A/C283A-EGFR (human) = C271A/C283A-EGFR (human) (UniProt P00533); experiment: flow cytometry on Ba/F3 cells, median fluorescence, average of four independent clones; reference M2 anti-FLAG antibody

monoclonal antibody 806, sequence (VH): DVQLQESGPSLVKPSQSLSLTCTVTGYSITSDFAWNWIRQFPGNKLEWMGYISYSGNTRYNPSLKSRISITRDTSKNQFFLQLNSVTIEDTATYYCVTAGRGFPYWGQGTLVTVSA
monoclonal antibody 806, sequence (VL): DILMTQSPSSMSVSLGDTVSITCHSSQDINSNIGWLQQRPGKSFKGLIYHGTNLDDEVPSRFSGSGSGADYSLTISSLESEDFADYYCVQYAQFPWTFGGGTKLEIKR

Substance | Kd [1] | Kd [2] | ratio of antibody binding mAb 528/M2 (wtEGFR-FLAG (human)) | ratio of antibody binding mAb 528/M2 (C271A/C283A-EGFR (human))
monoclonal antibody 806 | 34 nM | 389 nM |  | 
mAb 528 (antibody) |  |  | 1.37 | 1.08
